Experimental data from paper PMC9060471.

Key:
[1] = target: 6xHis-TLX ligand-binding domain, Q9Y466; assay: BLI; 6xHis-TLX LBD on Ni-NTA biosensors, Octet Red 96; atrophin peptide in solution
[2] = target: 6xHis-TLX ligand-binding domain, Q9Y466; assay: AlphaScreen or HTRF; ALPHA; atrophin peptide on donor beads, TLX ligand-binding domain on acceptor beads; competition with untagged atrophin peptide

Sequence of 6xHis-TLX ligand-binding domain, Q9Y466 (Q9Y466 155-385): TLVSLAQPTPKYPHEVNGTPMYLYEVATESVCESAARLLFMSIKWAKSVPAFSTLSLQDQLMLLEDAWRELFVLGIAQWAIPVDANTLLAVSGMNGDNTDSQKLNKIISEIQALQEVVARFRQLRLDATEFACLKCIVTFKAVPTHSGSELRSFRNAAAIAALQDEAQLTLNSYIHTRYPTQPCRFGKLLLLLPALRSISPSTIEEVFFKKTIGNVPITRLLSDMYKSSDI

PPYADTPALRQLSEYARPHVAFSP (modifications not checked) [atrophin corepressor peptide (untagged)]
Kd [1]: 14.2 µM
EC50 [2]: 1300 nM
